From PMC11321638 (Advanced Science, 2024)

System: HT22 nerve cell
Assay type: cell-based, Mouse

Substance: Botulinum Toxin Type A [Botox]
- induction of apoptosis in HT22 cells: dose‐dependent induction of apoptosis
- necrocytosis of HT22 cells: neither RSI prion nor Botox induced necrocytosis
